Reference: the supplement of paper PMC11908140

B1: library; numbered along this chain (parent)
chain: MRKPRAAVGSGHRKQAASQEGRQKHAKNNSQAKPSACDGLARQPEEVVLQASVSSYHLFRDVAEVTAFRGSLLSWYDQEKRDLPWRRRAEDEMDLDRRAYAVWVSEVMLQQTQVATVINYYTGWMQKWPTLQDLASASLEEVNQLWAGLGYYSRGRRLQEGARKVVEELGGHMPRTAETLQQLLPGVGRYTAGAIASIAFGQATGVVDGNVARVLCRVRAIGADPSSTLVSQQLWGLAQQLVDPARPGDFNQAAMELGATVCTPQRPLCSQCPVESLCRARQRVEQEQLLASGSLSGSPDVEECAPNTGQCHLCLPPSEPWDQTLGVVNFPRKASRKPPREESSATCVLEQPGALGAQILLVQRPNSGLLAGLWEFPSVTWEPSEQLQRKALLQELQRWAGPLPATHLRHLGEVVHTFSHIKLTYQVYGLALEGQTPVTTVPPGARWLTQEEFHTAAVSTAMKKVFRVYQGQQPGTCMGSKRSQVSSPCSRKKPRMGQQVLDNFFRSHISTDAHSLNSAAQ

Variants of: B1
Assay: 8OG:A repair function score (normalized; synonymous = 0, nonsense = -1) (normalized log-likelihood score); higher = more repair activity (WT-like)
Settings: with 8OG:A DNA repair reporter (GFP) in HEK-293 MUTYH KO cells
Method: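 Saturation mutagenesis (NNN codon scan) of the MUTYH cDNA (521-aa nuclear isoform NM_001048174.1 / NP_001041639), stably expressed under doxycycline induction in HEK-293 MUTYH knockout cells. Cells were co-transfected with an 8OG:A-bearing GFP repair reporter plus mCherry and sorted 72 h later into GFP+ and GFP− bins, three replicates per tile. The Rosace log2 enrichment (GFP+ vs GFP−) was converted per tile to a normalized function score with synonymous variants centered at 0 and nonsense variants (codons 1-471) at -1; low-abundance variants were removed.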

Compared with MRKPRAAVGSGHRKQAASQEGRQKHAKNNSQAKPSACDGLARQPEEVVLQASVSSYHLFRDVAEVTAFRGSLLSWYDQEKRDLPWRRRAEDEMDLDRRAYAVWVSEVMLQQTQVATVINYYTGWMQKWPTLQDLASASLEEVNQLWAGLGYYSRGRRLQEGARKVVEELGGHMPRTAETLQQLLPGVGRYTAGAIASIAFGQATGVVDGNVARVLCRVRAIGADPSSTLVSQQLWGLAQQLVDPARPGDFNQAAMELGATVCTPQRPLCSQCPVESLCRARQRVEQEQLLASGSLSGSPDVEECAPNTGQCHLCLPPSEPWDQTLGVVNFPRKASRKPPREESSATCVLEQPGALGAQILLVQRPNSGLLAGLWEFPSVTWEPSEQLQRKALLQELQRWAGPLPATHLRHLGEVVHTFSHIGLTYQVYGLALEGQTPVTTVPPGARWLTQEEFHTAAVSTAMKKVFRVYQGQQPGTCMGSKRSQVSSPCSRKKPRMGQQVLDNFFRSHISTDAHSLNSAAQ [K422G], MRKPRAAVGSGHRKQAASQEGRQKHAKNNSQAKPSACDGLARQPEEVVLQASVSSYHLFRDVAEVTAFRGSLLSWYDQEKRDLPWRRRAEDEMDLDRRAYAVWVSEVMLQQTQVATVINYYTGWMQKWPTLQDLASASLEEVNQLWAGLGYYSRGRRLQEGARKVVEELGGHMPRTAETLQQLLPGVGRYTAGAIASIAFGQATGVVDGNVARVLCRVRAIGADPSSTLVSQQLWGLAQQLVDPARPGDFNQAAMELGATVCTPQRPLCSQCPVESLCRARQRVEQEQLLASGSLSGSPDVEECAPNTGQCHLCLPPSEPWDQTLGVVNFPRKASRKPPREESSATCVLEQPGALGAQILLVQRPNSGLLASLWEFPSVTWEPSEQLQRKALLQELQRWAGPLPATHLRHLGEVVHTFSHIKLTYQVYGLALEGQTPVTTVPPGARWLTQEEFHTAAVSTAMKKVFRVYQGQQPGTCMGSKRSQVSSPCSRKKPRMGQQVLDNFFRSHISTDAHSLNSAAQ [G372S] is higher in “8OG:A repair function score” value: -0.491 for the first, -0.15 for the second.

Going from MRKPRAAVGSGHRKQAASQEGRQKHAKNNSQAKPSACDGLARQPEEVVLQASVSSYHLFRDVAEVTAFRGSLLSWYDQEKRDLPWRRRAEDEMDLDRRAYAVWVSEVMLQQTQVATVINYYTGWMQKWPTLQDLASASLEEVNQLWAGLGYYSRGRRLQEGARKVVEELGGHMPRTAETLQQLLPGVGRYTAGAIASIAFGQATGVVDGNVARVLCRVRAIGADPSSTLVSQQLWGLAQQLVDPARPGDFNQAAMELGATVCTPQRPLCSQCPVESLCRARQRVEQEQDLASGSLSGSPDVEECAPNTGQCHLCLPPSEPWDQTLGVVNFPRKASRKPPREESSATCVLEQPGALGAQILLVQRPNSGLLAGLWEFPSVTWEPSEQLQRKALLQELQRWAGPLPATHLRHLGEVVHTFSHIKLTYQVYGLALEGQTPVTTVPPGARWLTQEEFHTAAVSTAMKKVFRVYQGQQPGTCMGSKRSQVSSPCSRKKPRMGQQVLDNFFRSHISTDAHSLNSAAQ [L289D] to MRKPRAAVGSGHRKQAASQEGRQKHAKNNSQAKPSACDGLARQPEEVVLQASVSSYHLFRDVAEVTAFRGSLLSWYDQEKRDLPWRRRAEDEMDLDRRAYAVWVSEVMLQQTQVATVINYYTGWMQKWPTLQDLASASLEEVNQLWAGLGYYSRGRRLQEGARKVVEELGGHMPRTAETLQQLLPGVGRYTAGAIASIAFGQATGVVDGNVARVLCRVRAIGADPSSTLVSQQLWGLAQQLVDPARPGDFNQAAMALGATVCTPQRPLCSQCPVESLCRARQRVEQEQLLASGSLSGSPDVEECAPNTGQCHLCLPPSEPWDQTLGVVNFPRKASRKPPREESSATCVLEQPGALGAQILLVQRPNSGLLAGLWEFPSVTWEPSEQLQRKALLQELQRWAGPLPATHLRHLGEVVHTFSHIKLTYQVYGLALEGQTPVTTVPPGARWLTQEEFHTAAVSTAMKKVFRVYQGQQPGTCMGSKRSQVSSPCSRKKPRMGQQVLDNFFRSHISTDAHSLNSAAQ [E256A], the “8OG:A repair function score” value falls from -0.0394 to -0.756.

Going from MRKPRAAVGSGHRKQAASQEGRQKHAKNNSQAKPSACDGLARQPEEVVLQASVSSYHLFRDVAEVTAFRGSLLSWYDQEKRDLPWRRRAEDEMDLDRRAYAVWVSEVMLQQTQVATVINYYTGWMQKWPTLQDLASASLEEVNQLWAGLGYYSRGRRLQEGARKVVEELGGHMPRTAETLQQLLPGVGRYTAGAIASIAFGQATGVVDGNVARVLCRVRAIGADPSSTLVSQQLWGLAQQLVDPARPGDFNGAAMELGATVCTPQRPLCSQCPVESLCRARQRVEQEQLLASGSLSGSPDVEECAPNTGQCHLCLPPSEPWDQTLGVVNFPRKASRKPPREESSATCVLEQPGALGAQILLVQRPNSGLLAGLWEFPSVTWEPSEQLQRKALLQELQRWAGPLPATHLRHLGEVVHTFSHIKLTYQVYGLALEGQTPVTTVPPGARWLTQEEFHTAAVSTAMKKVFRVYQGQQPGTCMGSKRSQVSSPCSRKKPRMGQQVLDNFFRSHISTDAHSLNSAAQ [Q252G] to MRKPRAAVGSGHRKQAASQEGRQKHAKNNSQAKPSACDGLARQPEEVVLQASVSSYHLFRDVAEVTAFRGSLLSWYDQEKRDLPWRRRAEDEMDLDRRAYAVWVSEVMLQQTQVATVINYYTGWMQKWPTLQDLASASLEEVNQLWAGLGYYSRGRRLQEGARKVVEELGGHMPRTAETLQQLLPGVGRYTAGAIASIAFGQATGVVDGNVARVLCRVRAIGADPSSTLVSQQLWGLAQQLVDPARPGDFNQAAMELGATVCTPQRPLCSQCPVESLCRARQRVEQEQLLASGSLSGSPDVEECAPNTGQCHLCLPPSEPWDQTLGVVNFPRKASRKPPREESSATCVLEQPGALGAQILLVQRPNSGLLAGLWEFPSVTWEPSEQLQRKALLQELQRWAGPLPATHLRHLGEVVHTFSHIKLTYQVYGLALEGQTPVTTVPPGARWLTQEEFHTAAVSTAMKKVFRVYQGQQPGTCMGSKRSQVSSPCSRKKPRMGQQVLRNFFRSHISTDAHSLNSAAQ [D502R], the “8OG:A repair function score” value rises from -0.891 to 0.0187.

Compared with MRKPRAAVGSGHRKQAASQEGRQKHAKNNSQAKPSACDGLARQPEEVVLQASVSSYHLFRDVAEVTAFRGSLLSWYDQEKRDLPWRRRAEDEMDLDRRAYAVWVSEVMLQQTQVATVINYYTGWMQKWPTLQDLASASLEEVNQLWAGLGYYSRGRRLQEGARKVVEELGGHMPRTAETLQQLLPGVGRYTAGAIASIAFGQATGVVDGNVARVLCRVRAIGADPSSTLVSQQLWGLAQQLVDPARPGDFNQAAMELGATVCTPQRPLCSQCPVESLCRARQRVEQEQLLASGSLSGSPDVEECAPNTGQCHLCLPPSEPWDQTLGVVNFPRKASRKPPREESSATCVLEQPGALGAQILLVQRPNSGLLAGLWEFPSVTWEPSEQLQRKALLQELQRWAGPLPATHLRHLGEVVHTFSHIKLTYQVYGNALEGQTPVTTVPPGARWLTQEEFHTAAVSTAMKKVFRVYQGQQPGTCMGSKRSQVSSPCSRKKPRMGQQVLDNFFRSHISTDAHSLNSAAQ [L430N], MRKPRAAVGSGHRKQAASQEGRQKHAKNNSQAKPSACDGLARQPEEVVLQASVSSYHLFRDVAEVTAFRGSLLSWYDQEKRDLPWRRRAEDEMDLDRRAYAVWVSEVMLQQTQVATVINYYTGWMQKWPTLQDLASASLEEVNQLWAGLGYYSRGRRLQEGARKVVEELGGHMPRTAETLQQLLPGVGRYTAGAIASIAFGQATGVVDGNVARVLCRVRAIGADPSSTLVSQQLWGLAQQLVDPARPGDFNQAAMELGATVCTPQRPLCSQCPVESLCRARQRVEQEQLLASGSLSGSPDVEECAPNTGQCHLCLPPSEPWDQTLGVVNFPRKASRKPPREESSATCVLEQPGALGAQILLVQRPNSGLLAGLWEFPSVTWEPSEQLQRKALLQELQRWAGPLPATHLRHLGEVVHTFSHIKLNYQVYGLALEGQTPVTTVPPGARWLTQEEFHTAAVSTAMKKVFRVYQGQQPGTCMGSKRSQVSSPCSRKKPRMGQQVLDNFFRSHISTDAHSLNSAAQ [T424N] is higher in “8OG:A repair function score” value: -0.276 for the first, -0.156 for the second.

Compared with MRKPRAAVGSGHRKQAASQEGRQKHAKNNSQAKPSACDGLARQPEEVVLQASVSSYHLFRDVAEVTAFRGSLLSWYDQEKRDLPWRRRAEDEMDLDRRAYAVWVSEVMLQQTQVATVINYYTGWMQKWPTLQDLASASLEEVNQLWAGLGYYSRGRRLQEGARKVVEELGGHMPRTAETLQQLLPGVGRYTAGAIASIAFGQATGVVDGNVARVLCRVRAIGADPSSTLVSQQLWGLAQQLVDPARPGDFNQAAMELGATVCTPQRPLCSQCPVESLCRARQRVEQEQLLASGSLSGSPDVEECAPNTGQCHLCLPPSEPWDQTLGVVNFPRKASRKPPREESSATCVLEQPGALGAQILLVQRPNSGLLAGLWEFPSVTWEPSEQLCRKALLQELQRWAGPLPATHLRHLGEVVHTFSHIKLTYQVYGLALEGQTPVTTVPPGARWLTQEEFHTAAVSTAMKKVFRVYQGQQPGTCMGSKRSQVSSPCSRKKPRMGQQVLDNFFRSHISTDAHSLNSAAQ [Q388C], MRKPRAAVGSGHRKQAASQEGRQKHAKNNSQAKPSACDGLARQPEEVVLQASVSSYHLFRDVAEVTAFRGSLLSWYDQEKRDLPWRRRAEDEMDLDRRAYAVWVSEVMLQQTQVATVINYYTGWMQKWPTLQDLASASLEEVNQLWAGLGYYSRGRRLQEGARKVVEELGGHMPRTAETLQQLLPGVGRYTAGAIASIAFGQATGVVDGNVARVLCRVRAIGADPSSTLVSQQLWGLAQQLVDPARPGDFNQAAMELGATVCTPQRPLCSQCPVESLCRARQRVEQEQLLASGSLSGSPDVEECAPNTGQCHLCLPPSEPWDQTLGVVNFPRKASRKPPREESSATCVLEQPWALGAQILLVQRPNSGLLAGLWEFPSVTWEPSEQLQRKALLQELQRWAGPLPATHLRHLGEVVHTFSHIKLTYQVYGLALEGQTPVTTVPPGARWLTQEEFHTAAVSTAMKKVFRVYQGQQPGTCMGSKRSQVSSPCSRKKPRMGQQVLDNFFRSHISTDAHSLNSAAQ [G353W] is higher in “8OG:A repair function score” value: -0.459 for the first, -0.099 for the second.

Going from MRKPRAAVGSGHRKQAASQEGRQKHAKNNSQAKPSACDGLARQPEEVVLQASVSSYHLFRDVAEVTAFRGSLLSWYDQEKRDLPWRRRAEDEMDLDRRAYAVWVSEVMLQQTQVATVINYYTGWMQKWPTLQDLASESLEEVNQLWAGLGYYSRGRRLQEGARKVVEELGGHMPRTAETLQQLLPGVGRYTAGAIASIAFGQATGVVDGNVARVLCRVRAIGADPSSTLVSQQLWGLAQQLVDPARPGDFNQAAMELGATVCTPQRPLCSQCPVESLCRARQRVEQEQLLASGSLSGSPDVEECAPNTGQCHLCLPPSEPWDQTLGVVNFPRKASRKPPREESSATCVLEQPGALGAQILLVQRPNSGLLAGLWEFPSVTWEPSEQLQRKALLQELQRWAGPLPATHLRHLGEVVHTFSHIKLTYQVYGLALEGQTPVTTVPPGARWLTQEEFHTAAVSTAMKKVFRVYQGQQPGTCMGSKRSQVSSPCSRKKPRMGQQVLDNFFRSHISTDAHSLNSAAQ [A137E] to MRKPRAAVGSGHRKQAASQEGRQKHAKNNSQAKPSACDGLARQPEEVVLQASVSSYHLFRDVVEVTAFRGSLLSWYDQEKRDLPWRRRAEDEMDLDRRAYAVWVSEVMLQQTQVATVINYYTGWMQKWPTLQDLASASLEEVNQLWAGLGYYSRGRRLQEGARKVVEELGGHMPRTAETLQQLLPGVGRYTAGAIASIAFGQATGVVDGNVARVLCRVRAIGADPSSTLVSQQLWGLAQQLVDPARPGDFNQAAMELGATVCTPQRPLCSQCPVESLCRARQRVEQEQLLASGSLSGSPDVEECAPNTGQCHLCLPPSEPWDQTLGVVNFPRKASRKPPREESSATCVLEQPGALGAQILLVQRPNSGLLAGLWEFPSVTWEPSEQLQRKALLQELQRWAGPLPATHLRHLGEVVHTFSHIKLTYQVYGLALEGQTPVTTVPPGARWLTQEEFHTAAVSTAMKKVFRVYQGQQPGTCMGSKRSQVSSPCSRKKPRMGQQVLDNFFRSHISTDAHSLNSAAQ [A63V], the “8OG:A repair function score” value rises from -0.16 to -0.0122.
